Experimental data: publication doi:10.1101/2025.04.02.646830 (bioRxiv, 2025)
* marks the point of attachment. 6xHis = N-terminal hexahistidine tag, N[C@@H](Cc1c[nH]cn1)C(=O)N[C@@H](Cc1c[nH]cn1)C(=O)N[C@@H](Cc1c[nH]cn1)C(=O)N[C@@H](Cc1c[nH]cn1)C(=O)N[C@@H](Cc1c[nH]cn1)C(=O)N[C@@H](Cc1c[nH]cn1)C(=O)*

B1: Alexa Fluor 488-labeled FtsZ (natural protein, E. coli, UniProt P0A9A6 1-383, looked up)
chain: MFEPMELTNDAVIKVIGVGGGGGNAVEHMVRERIEGVEFFAVNTDAQALRKTAVGQTIQIGSGITKGLGAGANPEVGRNAADEDRDALRAALEGADMVFIAAGMGGGTGTGAAPVVAEVAKDLGILTVAVVTKPFNFEGKKRMAFAEQGITELSKHVDSLITIPNDKLLKVLGRGISLLDAFGAANDVLKGAVQGIAELITRPGLMNVDFADVRTVMSEMGYAMMGSGVASGEDRAEEAAEMAISSPLLEDIDLSGARGVLVNITAGFDLRLDEFETVGNTIRAFASDNATVVIGTSLDPDMNDELRVTVVATGIGMDKRPEITLVTNKQVQQPVMDRYQQHGMAPLTQEQKPVAKVVNDNAPQTAKEPDYLDIPAFLRKQAD
modifications: Alexa Fluor 488 label (site not stated)
B2: ^N-pepPBP1b (residues 1-64) peptide, N-terminal 6x-His tag, C-terminal cysteine, labelled with cyanine 5 (peptide)
peptide: 6xHis-MAGNDREPIGRKGKPTRPVKQKVSRRRYEDDDDYDDYDDYEDEEPMPRKGKGKGKGRKPRGKRGC(sulfo‑cyanine5‑maleimide)

Target: T1, FtsA (E. coli, UniProt P0ABH0 1-420)
T1 sequence (looked up): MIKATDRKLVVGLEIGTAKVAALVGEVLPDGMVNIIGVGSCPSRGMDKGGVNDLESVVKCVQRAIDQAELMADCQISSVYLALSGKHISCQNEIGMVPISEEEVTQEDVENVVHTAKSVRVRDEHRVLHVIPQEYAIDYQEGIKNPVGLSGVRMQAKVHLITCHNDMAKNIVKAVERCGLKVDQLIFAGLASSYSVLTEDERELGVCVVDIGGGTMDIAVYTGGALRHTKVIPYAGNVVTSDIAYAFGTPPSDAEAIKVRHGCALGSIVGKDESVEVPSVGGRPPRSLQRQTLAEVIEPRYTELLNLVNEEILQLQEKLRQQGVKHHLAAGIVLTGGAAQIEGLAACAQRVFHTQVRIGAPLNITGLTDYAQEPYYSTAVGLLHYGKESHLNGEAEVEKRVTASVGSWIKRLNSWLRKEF
Assay: TIRF microscopy of FtsZ membrane recruitment on supported lipid bilayers

Row | binding result | Binder
1 | binds | B1
2 | binds | B2
